Test [1] addresses 3xFLAG-HCMV-UL48, N-terminal catalytic domain of the HCMV large tegument protein (human cytomegalovirus (HCMV)) (UniProt P16785).
The target of test [2] is 3xFLAG-KSHV-ORF64, N-terminal catalytic domain of the KSHV large tegument protein (Kaposi Sarcoma herpesvirus (KSHV)) (UniProt Q2HR64).
Test [3] concerns the target 3xFLAG-BPLF1 (amino acid residues 1-235), N-terminal catalytic domain of the EBV large tegument protein (Epstein-Barr virus (EBV)) (UniProt P03186).
Chain of UniProt P03186 (P03186 1-235): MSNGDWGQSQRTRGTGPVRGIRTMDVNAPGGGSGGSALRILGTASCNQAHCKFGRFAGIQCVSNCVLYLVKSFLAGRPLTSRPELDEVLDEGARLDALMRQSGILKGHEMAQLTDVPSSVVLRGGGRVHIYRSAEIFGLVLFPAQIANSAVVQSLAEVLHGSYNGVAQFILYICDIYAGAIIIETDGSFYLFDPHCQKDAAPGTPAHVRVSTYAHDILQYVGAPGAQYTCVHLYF

Chain of UniProt P16785 (P16785 1-300): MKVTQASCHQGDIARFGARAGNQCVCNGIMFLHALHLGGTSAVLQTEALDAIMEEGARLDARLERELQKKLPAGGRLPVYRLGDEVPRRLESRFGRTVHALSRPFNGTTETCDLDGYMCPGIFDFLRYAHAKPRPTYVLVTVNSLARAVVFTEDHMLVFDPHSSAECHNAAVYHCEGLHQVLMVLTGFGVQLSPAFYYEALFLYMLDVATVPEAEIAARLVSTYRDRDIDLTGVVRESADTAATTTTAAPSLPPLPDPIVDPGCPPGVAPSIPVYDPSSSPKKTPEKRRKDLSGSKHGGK
Chain of UniProt Q2HR64 (Q2HR64 1-300): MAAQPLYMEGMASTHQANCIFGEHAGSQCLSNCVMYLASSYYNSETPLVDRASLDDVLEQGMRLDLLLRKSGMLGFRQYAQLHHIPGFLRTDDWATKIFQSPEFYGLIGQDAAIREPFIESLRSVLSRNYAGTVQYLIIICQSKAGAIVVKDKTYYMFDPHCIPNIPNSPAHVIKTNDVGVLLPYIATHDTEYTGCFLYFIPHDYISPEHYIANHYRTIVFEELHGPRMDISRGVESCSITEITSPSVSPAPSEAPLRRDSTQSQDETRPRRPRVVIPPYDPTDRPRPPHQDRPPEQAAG

For the substance “14-3-3 molecular scaffold (endogenous, detected with a pan 14-3-3 antibody) (from UniProt P63104 1-245) (natural protein)”, the mono-ubiquitination of co-transfected HA-TRIM25 (western blot, densitometry), percent mono-ubiquitinated TRIM25 in test [1] and in test [2] was greater than 70% each time. Also, in test [3], the inhibition of IRF3 nuclear translocation in RIG-I-2CARD positive HeLa cells was greater than 50%.

Source of the values: paper PMC7080818.
